B1: λ Orf73 (Orf73 from bacteriophage lambda) (natural protein)
chain: ADIIDSASEIEELQRNTAIKMRRLNHQAISATHCCECGDPIDERRRLVVQGCRTCASCQEDLELISKQRGSK
B2: VP882 Orf61 (Orf61 from Vibrio phage VP882) (natural protein)
chain: SDIADQAQDVIEQHLTASLANRKHNINPAIPSAKHCDDCESEIPEARRRSLPGVRLCVDCASLQEIKGRHQR
B3: VHML Orf8 (Orf8 from Vibrio phage VHML) (natural protein)
chain: MTDCSADPLDRAAALSQAHLEVSLSRIKKFEGVSAHECVECGSEIPKKRRELLQGVTDCVDCAAIKETLSKNYMR

Experiments:
[1] = biological target: T1, E. coli RNA polymerase holoenzyme (native) (E. coli, UniProt P0A8V2 1-1342; P0A8T7 1-1407; P00579 1-613; P0A7Z4 1-329; P0A800 1-91); test: cell-based or functional assay
[2] = biological target: T1, E. coli RNA polymerase holoenzyme …; conditions: both partners purified

| Binder | IC50 for inhibition of rrnB P1 transcription, multiround in vitro transcription with E. coli RNAP (4 nM to 2,000 nM factor) [1] [nM] | IC50 [2] [nM] |
| --- | --- | --- |
| B1 | ~50 | – |
| B2 | 270 | 1700 |
| B3 | 800 | 3000 |

Source: publication PMC9239242 (mBio, 2022)
